In patent EP4713370A2 (dated 2026):

B1: ch44G2/ch5-13 Fc-silenced (bispecific antibody, human IgG1, kappa, L234A L235A)
heavy: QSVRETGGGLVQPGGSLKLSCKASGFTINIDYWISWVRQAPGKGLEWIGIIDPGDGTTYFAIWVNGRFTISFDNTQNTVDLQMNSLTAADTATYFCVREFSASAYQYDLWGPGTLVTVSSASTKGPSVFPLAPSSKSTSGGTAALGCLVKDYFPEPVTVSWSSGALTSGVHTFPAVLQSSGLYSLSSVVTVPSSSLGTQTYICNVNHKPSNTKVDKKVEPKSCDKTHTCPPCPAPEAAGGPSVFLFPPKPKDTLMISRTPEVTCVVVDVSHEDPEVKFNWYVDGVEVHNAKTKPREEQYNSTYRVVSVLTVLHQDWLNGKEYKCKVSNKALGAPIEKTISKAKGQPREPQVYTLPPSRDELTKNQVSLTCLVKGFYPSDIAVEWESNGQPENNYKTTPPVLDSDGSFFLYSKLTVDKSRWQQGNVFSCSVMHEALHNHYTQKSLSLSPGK
light: DLVMTQTPSSVSAAVGGTVSINCRASEDIENYLAWYQQKPGQPPKLLIYRASTLSSGVSSRFSGSGSGTEFTLTISGVQPDDAATYYCQQGYRNSNVDNPFGGGTEMVVKRTVAAPSVFIFPPSDEQLKSGTASVVCLLNNFYPREAKVQWKVDNALQSGNSQESVTEQDSKDSTYSLSSTLTLSKADYEKHKVYACEVTHQGLSSPVTKSFNRGECGGGGSGGGGSGGGGSGGGGSAYDMTQTPASVEVAVGGTVTIKCQASQSISTALAWYQQKPGQPPKLLIYKASTLASGVSSRFKGSGSGTQFTLTISGVEPADAATYYCQQGYSRSNVDNVFGGGTEVVVKGGGGSGGGGSGGGGSGGGGSQSVEESGGRLVTPGTPLTLTCTVSGFSLSSYHMSWVRQAPGKGLEWIGYILANTDSYYANWAKGRFTISKTSTTVDLKITSPTTEDTATYFCARYDNHDAAYSTLWGPGTLVTVSS
notes: LC format, LALAPG silenced Fc; also called CD79b/NKp46 bispecific antibody; 44G2/5-13
B2: ch44G2/ch3-7 Fc-silenced (bispecific antibody, human IgG1, kappa, L234A L235A)
heavy: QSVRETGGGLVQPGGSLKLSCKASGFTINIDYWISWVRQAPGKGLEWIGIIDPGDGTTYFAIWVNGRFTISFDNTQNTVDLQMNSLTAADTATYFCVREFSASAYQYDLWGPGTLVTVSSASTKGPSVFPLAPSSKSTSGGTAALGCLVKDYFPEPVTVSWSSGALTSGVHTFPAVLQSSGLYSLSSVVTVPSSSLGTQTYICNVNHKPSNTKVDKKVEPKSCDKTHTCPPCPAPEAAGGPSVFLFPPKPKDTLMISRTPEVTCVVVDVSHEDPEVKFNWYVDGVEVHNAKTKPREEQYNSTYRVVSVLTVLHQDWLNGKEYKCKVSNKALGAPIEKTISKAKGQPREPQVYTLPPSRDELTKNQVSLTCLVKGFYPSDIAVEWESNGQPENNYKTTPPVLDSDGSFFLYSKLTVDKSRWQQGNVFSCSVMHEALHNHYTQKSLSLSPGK
light: DLVMTQTPSSVSAAVGGTVSINCRASEDIENYLAWYQQKPGQPPKLLIYRASTLSSGVSSRFSGSGSGTEFTLTISGVQPDDAATYYCQQGYRNSNVDNPFGGGTEMVVKRTVAAPSVFIFPPSDEQLKSGTASVVCLLNNFYPREAKVQWKVDNALQSGNSQESVTEQDSKDSTYSLSSTLTLSKADYEKHKVYACEVTHQGLSSPVTKSFNRGECGGGGSGGGGSGGGGSGGGGSAFELTQTPSSVEAAVGGTVTINCQASQDIYIYLAWYQQKPGQPPKLLIYSASTLASGVSSRFTGSRSGTQFTLTISDLEPADAATYYCQSYDGTSNTGFGGGTEVVVRGGGGSGGGGSGGGGSGGGGSQSLEESGGRLVTPGTPLTLTCTVSGFSPSSYYMSWVRQAPGKGLEYIGIIFSGGSTWYASWAKGRVTISRTSTTVDLKMTSLTTEDTATYFCARGDAVGSGYWGLWGPGTLVTVSS
notes: LC format: the NKp46 scFv (VL-GS-VH) is joined to the C terminus of the anti-CD79b light chain, with LALAPG silenced Fc; also called CD79b/NKp46 bispecific antibody; 44G2/3-7
B3: ch44G2/ch6-1 Fc-silenced (bispecific antibody, human IgG1, kappa, L234A L235A)
heavy: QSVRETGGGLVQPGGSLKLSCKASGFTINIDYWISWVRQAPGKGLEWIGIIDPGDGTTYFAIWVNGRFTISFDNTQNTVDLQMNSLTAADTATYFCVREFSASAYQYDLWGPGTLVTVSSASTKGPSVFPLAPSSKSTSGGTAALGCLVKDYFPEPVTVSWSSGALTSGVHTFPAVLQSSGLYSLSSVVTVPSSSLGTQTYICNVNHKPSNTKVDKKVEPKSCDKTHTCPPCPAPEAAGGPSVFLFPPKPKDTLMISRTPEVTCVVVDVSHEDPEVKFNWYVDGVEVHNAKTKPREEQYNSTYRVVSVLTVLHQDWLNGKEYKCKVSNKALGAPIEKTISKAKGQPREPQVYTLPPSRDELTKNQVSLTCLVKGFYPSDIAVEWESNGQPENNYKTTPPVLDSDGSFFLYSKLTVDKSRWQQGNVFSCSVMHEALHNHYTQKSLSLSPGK
light: DLVMTQTPSSVSAAVGGTVSINCRASEDIENYLAWYQQKPGQPPKLLIYRASTLSSGVSSRFSGSGSGTEFTLTISGVQPDDAATYYCQQGYRNSNVDNPFGGGTEMVVKRTVAAPSVFIFPPSDEQLKSGTASVVCLLNNFYPREAKVQWKVDNALQSGNSQESVTEQDSKDSTYSLSSTLTLSKADYEKHKVYACEVTHQGLSSPVTKSFNRGECGGGGSGGGGSGGGGSGGGGSADVVMTQTPASVSEPVGGTITINCQASENIYSSLAWYQQKPGQPPKLLMYDVSDLASGVPSRFSGSGSGTEFALTISDVQPDDAATYFCLGGYPSNNYRMAFGGGTEVVVKGGGGSGGGGSGGGGSGGGGSQSLEESGGGLVQPEGSLTLTCTASGFSFSSSAWICWVRQAPGKGLEWIGCINTVSVNAYYASWAKGRFTISKTSSTTVTLQVTSLTAADTATHFCARNPYNSLRLWGPGTLVTVSS
notes: LC format, LALAPG silenced Fc; also called CD79b/NKp46 bispecific antibody; 44G2/6-1
B4: h44G2/h6-1 (HC) Fc-optimized (bispecific antibody, human IgG1, kappa)
heavy: EQQLVETGGGLIQPGGSLRLSCAASGFTINIDYWISWVRQAPGKGLEWIGIIDPGDGTTYFAIWVSGRFTISFDNSKNTVYLQMNSLRAEDTAVYFCVREFSASAYQYDLWGPGTLVTVSSASTKGPSVFPLAPSSKSTSGGTAALGCLVKDYFPEPVTVSWNSGALTSGVHTFPAVLQSSGLYSLSSVVTVPSSSLGTQTYICNVNHKPSNTKVDKKVEPKSCDKTHTCPPCPAPELLAGPSVFLFPPKPKDTLMISRTPEVTCVVVDVSHEDPEVKFNWYVDGVEVHNAKTKPREEQYNSTYRVVSVLTVLHQDWLNGKEYKCKVSNKALPLPEEKTISKAKGQPREPQVYTLPPSRDELTKNQVSLTCLVKGFYPSDIAVEWESNGQPENNYKTTPPVLDSDGSFFLYSKLTVDKSRWQQGNVFSCSVMHEALHNHYTQKSLSLSPGGGGGSGGGGSGGGGSDVQMTQSPSTLSASVGDRVTITCQASENIYSSLAWYQQKPGKPPKLLMYDVSDLASGVPSRFSGSGSGTEFTLTISSLQPDDFATYFCLGGYPSNNYRMAFGCGTKVEIKGGGGSGGGGSGGGGSGGGGSEQQLLESGGGLVQPGGSLRLSCAASGFSFSSSAWIVWVRQAPGKCLEWIGVINTVSVNAYYASWAKGRFTISKDSSKNTVYLQMNSLRAEDTAVYFCARNPYNSLRLWGPGTLVTVSS
light: ELVMTQSPATLSVSPGERATLSCRASEDIENYLAWYQQKPGQPPRLLIYRASTLSSGVPARFSGSGSGTEFTLTISSLQSEDFAVYYCQQGYRNSNVDNPFGGGTKVEIKRTVAAPSVFIFPPSDEQLKSGTASVVCLLNNFYPREAKVQWKVDNALQSGNSQESVTEQDSKDSTYSLSSTLTLSKADYEKHKVYACEVTHQGLSSPVTKSFNRGEC
notes: HC format, optimized Fc; also called humanized CD79b/NKp46 bispecific antibody; humanized NK cell engager
B5: h44G2/h6-1 (LC) Fc-optimized (bispecific antibody, human IgG1, kappa)
heavy: EQQLVETGGGLIQPGGSLRLSCAASGFTINIDYWISWVRQAPGKGLEWIGIIDPGDGTTYFAIWVSGRFTISFDNSKNTVYLQMNSLRAEDTAVYFCVREFSASAYQYDLWGPGTLVTVSSASTKGPSVFPLAPSSKSTSGGTAALGCLVKDYFPEPVTVSWNSGALTSGVHTFPAVLQSSGLYSLSSVVTVPSSSLGTQTYICNVNHKPSNTKVDKKVEPKSCDKTHTCPPCPAPELLAGPSVFLFPPKPKDTLMISRTPEVTCVVVDVSHEDPEVKFNWYVDGVEVHNAKTKPREEQYNSTYRVVSVLTVLHQDWLNGKEYKCKVSNKALPLPEEKTISKAKGQPREPQVYTLPPSRDELTKNQVSLTCLVKGFYPSDIAVEWESNGQPENNYKTTPPVLDSDGSFFLYSKLTVDKSRWQQGNVFSCSVMHEALHNHYTQKSLSLSPGK
light: ELVMTQSPATLSVSPGERATLSCRASEDIENYLAWYQQKPGQPPRLLIYRASTLSSGVPARFSGSGSGTEFTLTISSLQSEDFAVYYCQQGYRNSNVDNPFGGGTKVEIKRTVAAPSVFIFPPSDEQLKSGTASVVCLLNNFYPREAKVQWKVDNALQSGNSQESVTEQDSKDSTYSLSSTLTLSKADYEKHKVYACEVTHQGLSSPVTKSFNRGECGGGGSGGGGSGGGGSDVQMTQSPSTLSASVGDRVTITCQASENIYSSLAWYQQKPGKPPKLLMYDVSDLASGVPSRFSGSGSGTEFTLTISSLQPDDFATYFCLGGYPSNNYRMAFGCGTKVEIKGGGGSGGGGSGGGGSGGGGSEQQLLESGGGLVQPGGSLRLSCAASGFSFSSSAWIVWVRQAPGKCLEWIGVINTVSVNAYYASWAKGRFTISKDSSKNTVYLQMNSLRAEDTAVYFCARNPYNSLRLWGPGTLVTVSS
notes: LC format, optimized Fc; also called humanized CD79b/NKp46 bispecific antibody; humanized NK cell engager
B6: ch44G2/ch6-1 (HC) Fc-optimized (bispecific antibody, human IgG1, kappa)
heavy: QSVRETGGGLVQPGGSLKLSCKASGFTINIDYWISWVRQAPGKGLEWIGIIDPGDGTTYFAIWVNGRFTISFDNTQNTVDLQMNSLTAADTATYFCVREFSASAYQYDLWGPGTLVTVSSASTKGPSVFPLAPSSKSTSGGTAALGCLVKDYFPEPVTVSWNSGALTSGVHTFPAVLQSSGLYSLSSVVTVPSSSLGTQTYICNVNHKPSNTKVDKRVEPKSCDKTHTCPPCPAPELLAGPSVFLFPPKPKDTLMISRTPEVTCVVVDVSHEDPEVKFNWYVDGVEVHNAKTKPREEQYNSTYRVVSVLTVLHQDWLNGKEYKCKVSNKALPLPEEKTISKAKGQPREPQVYTLPPSRDELTKNQVSLTCLVKGFYPSDIAVEWESNGQPENNYKTTPPVLDSDGSFFLYSKLTVDKSRWQQGNVFSCSVMHEALHNHYTQKSLSLSPGKGGGGSGGGGSGGGGSADVVMTQTPASVSEPVGGTITINCQASENIYSSLAWYQQKPGQPPKLLMYDVSDLASGVPSRFSGSGSGTEFALTISDVQPDDAATYFCLGGYPSNNYRMAFGGGTEVVVKGGGGSGGGGSGGGGSGGGGSQSLEESGGGLVQPEGSLTLTCTASGFSFSSSAWICWVRQAPGKGLEWIGCINTVSVNAYYASWAKGRFTISKTSSTTVTLQVTSLTAADTATHFCARNPYNSLRLWGPGTLVTVSS
light: DLVMTQTPSSVSAAVGGTVSINCRASEDIENYLAWYQQKPGQPPKLLIYRASTLSSGVSSRFSGSGSGTEFTLTISGVQPDDAATYYCQQGYRNSNVDNPFGGGTEMVVKRTVAAPSVFIFPPSDEQLKSGTASVVCLLNNFYPREAKVQWKVDNALQSGNSQESVTEQDSKDSTYSLSSTLTLSKADYEKHKVYACEVTHQGLSSPVTKSFNRGEC
notes: HC format: the NKp46 scFv stands at the C terminus of the heavy chain Fc, with optimized Fc; also called chimeric CD79b/NKp46 bispecific antibody; NK cell engager
B7: ch44G2/ch6-1 (LC) Fc-optimized (bispecific antibody, human IgG1, kappa)
heavy: QSVRETGGGLVQPGGSLKLSCKASGFTINIDYWISWVRQAPGKGLEWIGIIDPGDGTTYFAIWVNGRFTISFDNTQNTVDLQMNSLTAADTATYFCVREFSASAYQYDLWGPGTLVTVSSASTKGPSVFPLAPSSKSTSGGTAALGCLVKDYFPEPVTVSWNSGALTSGVHTFPAVLQSSGLYSLSSVVTVPSSSLGTQTYICNVNHKPSNTKVDKRVEPKSCDKTHTCPPCPAPELLAGPSVFLFPPKPKDTLMISRTPEVTCVVVDVSHEDPEVKFNWYVDGVEVHNAKTKPREEQYNSTYRVVSVLTVLHQDWLNGKEYKCKVSNKALPLPEEKTISKAKGQPREPQVYTLPPSRDELTKNQVSLTCLVKGFYPSDIAVEWESNGQPENNYKTTPPVLDSDGSFFLYSKLTVDKSRWQQGNVFSCSVMHEALHNHYTQKSLSLSPGK
light: B3 light
notes: LC format: the NKp46 scFv stands at the C terminus of the anti-CD79b light chain, with optimized Fc (G236A, A330L, I332E, EU numbering); also called chimeric CD79b/NKp46 bispecific antibody; NK cell engager

target: T1, CD79b on target B cell lines (Ramos (CD79b+) cells; Daudi cells) (UniProt P40259 29-229, limits assumed); experiment: flow cytometry on Ramos cells, anti-human IgG PE
T1 construct: whole, on cells; On cells CD79b stands in the B cell receptor complex with CD79a; also called Ramos (CD79+) cells; CD79b expression cells
T1 sequence (looked up): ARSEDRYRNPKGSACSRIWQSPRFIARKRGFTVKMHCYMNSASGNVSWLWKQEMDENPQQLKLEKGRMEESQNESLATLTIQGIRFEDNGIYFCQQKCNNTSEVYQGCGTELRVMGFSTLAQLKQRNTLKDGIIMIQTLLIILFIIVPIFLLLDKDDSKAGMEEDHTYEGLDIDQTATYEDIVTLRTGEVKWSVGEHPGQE

Binding result, binds:
B1
B2
B3

target: T1, CD79b on target B cell lines (Ramos …); experiment: flow cytometry on Ramos cells, anti-human IgG Fc PE

Binding result, binds:
B4
B5
B6
B7

target: T2, human NKp46 expressed on cells (primary human NK cells; CHOK1-hNKp46 cells) (human, UniProt O76036 22-304); experiment: flow cytometry on CHOK1-hNKp46 cells, anti-human IgG Fc PE
T2 construct: whole, on cells; also called cell surface expressed NKp46; NCR1
T2 sequence (O76036 22-304): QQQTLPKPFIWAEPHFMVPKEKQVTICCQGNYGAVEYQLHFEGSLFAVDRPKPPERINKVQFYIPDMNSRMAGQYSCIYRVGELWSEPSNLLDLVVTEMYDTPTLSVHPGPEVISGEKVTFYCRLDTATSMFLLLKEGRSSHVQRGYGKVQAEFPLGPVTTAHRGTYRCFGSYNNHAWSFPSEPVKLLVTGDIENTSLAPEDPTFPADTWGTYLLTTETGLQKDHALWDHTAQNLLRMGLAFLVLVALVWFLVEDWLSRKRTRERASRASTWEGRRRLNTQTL

Binding result, binds:
B4
B5
B6
B7

target: T2, human NKp46 expressed on cells (primary …); experiment: flow cytometry on purified CD56+ human NK cells, anti-human IgG PE

Binding result, binds:
B1
B2
B3
